Experimental findings from the RNAGym collection of RNA variant scans (doi:10.7554/elife.80360) are described below.

B1: Hairpin Ribozyme (parent)
chain: GUCCUCUUUCACGUGCGCGUGAAAGAGAGAAGUGAACCAGAGAAACACACGUUGUGGUAUAUUACCUGGUA

The variants in the data set derive from B1. The data set can be described thus: self-cleavage, relative activity (ratio to wild type); higher = more cleavage; co-transcriptional.
As for GUCCUCUUUCACGAGCGCGUGAAAGAGAGAAGUGAACCAGAGAAACACACGUUGUGGUAUACUACCUGGUA [U14A U62C], the self-cleavage stood at 0.257.
Under GUCCUCUUUCACGAGCGCGUGAAAGAGAGAAGUGUACCAGAGAAACACACGUUGUGGUAUAUUACCUGGUA [U14A A35U] stands 0.656; under GUCCUCUUUCACGAGCGCGUGAAAGAGAGAAGUGAACCAGAGAAACACACGUGGUGGUAUAUUACCUGGUA [U14A U53G], 0.899.
For GUCCUCUUUCACGAGCGCGUGAAAGAGAGAAGUGAACCAGAGAAACACACGUCGUGGUAUAUUACCUGGUA [U14A U53C], the self-cleavage came to 1.07.
For GUCCUCUUUCACUUGCGCGUGAAAGAGAGAAGUGAACCAGAGAAACACACGUUGUGGUAUAUUACCUGCUA [G13U G69C], the self-cleavage is 0.198.
As to GUCCUCUUUCACGAGCGCGUGAAAGAGAGAAGUGAACCAGAGAAACACACGUUGUGGUAUAUUACCUGGUC [U14A A71C], the self-cleavage turned out to be 1.34.
With GUCCUCUUUCACGAGCGCGUGAAAGAGAGAAGUGAACCAGAGAAACACACGUUGUGGUAUAUUACCUGGUU [U14A A71U] the figure was 0.645.
With GUCCUCUUUCACGAGCGCGUGAAAGAGAGAAAUGAACCAGAGAAACACACGUUGUGGUAUAUUACCUGGUA [U14A G32A] the figure was 0.106.
With GUCCUCUUUCACGAGCGCGUGAAAGAGAGAAUUGAACCAGAGAAACACACGUUGUGGUAUAUUACCUGGUA [U14A G32U] the figure was 0.108; with GUCCUCUUUCACGAGCGCGUGAAAGAGAGAAGUGAACCAGAGAAACACACAUUGUGGUAUAUUACCUGGUA [U14A G51A], 0.957.
With GUCCUCUUUCACGAGCGCGUGAAAGAGAGAAGUGAACCAGAGAAACACACCUUGUGGUAUAUUACCUGGUA [U14A G51C], the self-cleavage amounted to 0.89.
With GUCCUCUUUCACGAGCGCGUGAAAGAGAGAAGUGAACCAGAGAAACACACGUUGUGGUAUAUUACCUGGUA [U14A] the figure was 0.956; with GUCCUCUUUCACGAGCGCGUGAAAGAUAGAAGUGAACCAGAGAAACACACGUUGUGGUAUAUUACCUGGUA [U14A G27U], 0.192; with GUCCUCUUUCACGAGCGCGUGAAAGACAGAAGUGAACCAGAGAAACACACGUUGUGGUAUAUUACCUGGUA [U14A G27C], 0.196.
As to GUCCUCUUUCACGAGCGCGUGAAAGAAAGAAGUGAACCAGAGAAACACACGUUGUGGUAUAUUACCUGGUA [U14A G27A], the self-cleavage was determined as 0.39.
Turning to GUCCUCUUUCACUUGCGCGUGAAAGAGAGAAGUGAACCAGAGAAACACACGUUGUGGUAUAAUACCUGGUA [G13U U62A], the self-cleavage was found to be 0.179.
Under GUCCUCUUUCACGAGCGCGUGAAAGAGAGAAGUGAACCAGAGAAACACACGUUGUGGUGUAUUACCUGGUA [U14A A59G] stands 0.0952; under GUCCUCUUUCACGAGCGCGUGAAAGAGAGAAGUUAACCAGAGAAACACACGUUGUGGUAUAUUACCUGGUA [U14A G34U], 1.47.
With GUCCUCUUUCACUUGCGCGUGAAAGAGAGAAGUGAACCAGAGAAACACACGGUGUGGUAUAUUACCUGGUA [G13U U52G], the self-cleavage is 0.623.
With GUCCUCUUUCACGAGCGCGUGAAAGAGAGAAGUGAACCAGAGAAACACACGUUGUGGUAUAUUACGUGGUA [U14A C66G] the figure was 0.143; with GUCCUCUUUCACGAGCGCGUGAAAGAGAGAAGUGAACCAGAGAAACACACGUUGUGGUAUAUUACCUGUUA [U14A G69U], 0.205.
On to GUCCUCUUUCACGAGCGCGUGAAAGAGAGAAGUGAACCAGAGAAACACACGUUGUGGUAUAUUACCUGCUA [U14A G69C], for which the self-cleavage turned out to be 0.337.
As to GUCCUCUUUCACGAGCGCGUGAAACAGAGAAGUGAACCAGAGAAACACACGUUGUGGUAUAUUACCUGGUA [U14A G25C], the self-cleavage was 0.418.
On to GUCCUCUUUCACGAGCGCGUGAAAGAGAGAAGUGAACCAGAGAAACACAAGUUGUGGUAUAUUACCUGGUA [U14A C50A], for which the self-cleavage turned out to be 0.13.
Under GUCCUCUUUCACGAGCGCGUGAAAGAGAGAAGUGAACCAGAGAAACACAUGUUGUGGUAUAUUACCUGGUA [U14A C50U] stands 0.397; under GUCCUCUUUCACGAGCGCGUGAAAGAGAGAAGUGAACCAGAGAAACACACGUUGUGGUAUAUUACCUAGUA [U14A G68A], 0.173.
With GUCCUCUUUCACGAGCGCGUGAAAGAGAGAAGUGAACCAGAGAAACACACGUUGUGGUAUAUUACCUUGUA [U14A G68U] the figure was 0.307; with GUCCUCUUUCACGAGCGCGUGAAAGAGAGAAGUGAACCAGAGAAGCACACGUUGUGGUAUAUUACCUGGUA [U14A A45G], 0.0459.
For GUCCUCUUUCACGAGCGCGGGAAAGAGAGAAGUGAACCAGAGAAACACACGUUGUGGUAUAUUACCUGGUA [U14A U20G], the self-cleavage was found to be 0.663.
For the variant GUCCUCUUUCACGAGCGCGCGAAAGAGAGAAGUGAACCAGAGAAACACACGUUGUGGUAUAUUACCUGGUA [U14A U20C], the self-cleavage was found to be 1.
On to GUCCUCUUUCACUUGCGCGUGAAAGAGAGAAGUGAACCAGAGAAACACACGUUGUGGUAUAUUACCUGGAA [G13U U70A], for which the self-cleavage was 0.771.
Take GUCCUCUUUCACGAGCGCGUGAAAGAGAGAAGUGAACAAGAGAAACACACGUUGUGGUAUAUUACCUGGUA [U14A C38A]: the self-cleavage was 0.171.
Under GUCCUCUUUCACGAGCGCGUGAAAGAGAGAAGUGAACCAGGGAAACACACGUUGUGGUAUAUUACCUGGUA [U14A A41G] stands 0.867.
Under GUCCUCUUUCACGAGCGCGUGAAAGAGAGCAGUGAACCAGAGAAACACACGUUGUGGUAUAUUACCUGGUA [U14A A30C] stands 0.222; under GUCCUCUUUCACGAGCGCGUGAAAGAGAGUAGUGAACCAGAGAAACACACGUUGUGGUAUAUUACCUGGUA [U14A A30U], 0.156.
As to GUCCUCUUUCACGAGCGCGUGAAAGAGAGGAGUGAACCAGAGAAACACACGUUGUGGUAUAUUACCUGGUA [U14A A30G], the self-cleavage came out at 0.165.
GUCCUCUUUCACGAGCGCGUGAAAGAGAGAAGUGAACCAGAGAAACACACGUUGUGGUAUCUUACCUGGUA [U14A A61C]: the self-cleavage was determined as 0.331.
Under GUCCUCUUUCACGAGCGCGUGAAAGAGAGAAGUGAACCAGAAAAACACACGUUGUGGUAUAUUACCUGGUA [U14A G42A] stands 0.108.
